This note sets out measurements from the RNAGym collection of RNA variant scans (doi:10.1073/pnas.2313332121).

This sample holds only a part of the variants without activity.

The labels stand for the following.
B1: TPR 5TU (parent)
chain: GGAUCUUCUCGAUCUAACAAAAAAGACAAAUCUGCCACAAAGCUUGAGAGCAUCUUCGGAUGCAGAGGCGGCAGCCUUCGGUGGCGCGAUAGCGCCAACGUUCUCAACUAUGACACGCAAAACGCGUGCUCCGUUGAAUGGAGUUUAUCAUG

The variants in this data set derive from B1. In words: polymerase ribozyme fitness, log enrichment relative to wild type (log ratio); higher = more active; in vitro selection for triplet polymerase activity. The procedure, abridged:
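For each subunit of a heterodimeric triplet polymerase ribozyme, a mutant library was built by PCR and transcribed, then taken through a single in vitro selection round in triplicate. Selection involved annealing to a biotinylated primer, the partner subunit and triplets, incubation frozen at −7 °C, gel excision of extended constructs, capture on streptavidin beads and RT-PCR. Genotypes were retained after Illumina sequencing of inputs and outputs only with ≥10 input reads and ≥1 read in each output. Fitness is defined as the logarithm of a genotype's enrichment relative to wild-type enrichment, using inverse-variance-weighted averages across replicates, with the logarithm taken to base 2.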
As to A73G C93U G141U, the “polymerase ribozyme fitness (log ratio)” value worked out at 0.326. For the variant G74A A106C A142C, the “polymerase ribozyme fitness (log ratio)” value is no more than -4.2. In the case of C76G C87G U102G C108A it was no more than -4.2; in that of C72A U148A, no more than -4.2. On to C72U G92A C116U U139G, for which the “polymerase ribozyme fitness (log ratio)” value was -3.15. Take C76G C103G U104G U135C: the “polymerase ribozyme fitness (log ratio)” value was no more than -4.2. In the case of A73U U102G it was no more than -4.2; in that of A73U C93A, -3.39.

On to A73U C93U, for which the “polymerase ribozyme fitness (log ratio)” value is -1.62.

In the case of A73U C123U, the “polymerase ribozyme fitness (log ratio)” value is -0.392. For C75U A91C A119G G136U, the “polymerase ribozyme fitness (log ratio)” value was no more than -4.2.

As to G74A C85G, the “polymerase ribozyme fitness (log ratio)” value is -3.83. In the case of G74A C85U it was -3.54; in that of C76G G88A G136A U139G, no more than -4.2. For G74C G92U, the “polymerase ribozyme fitness (log ratio)” value was -4.02. With A73U G80A C93U U146G the figure was -3.03; with A73G C99U, -0.979. In the case of C75A C96U A97C it was no more than -4.2; in that of C72U A91U G92A U127G, no more than -4.2; in that of C75U G84U U148A, no more than -4.2. With G71U G141U the figure was -3.55. For the variant G74A G84A A89G, the “polymerase ribozyme fitness (log ratio)” value is no more than -4.2.

For the variant C75G U82G A91C, the “polymerase ribozyme fitness (log ratio)” value was no more than -4.2. As to C75U A122G G124A C149U, the “polymerase ribozyme fitness (log ratio)” value is -1.15. In the case of A73C G86C U104C it was no more than -4.2; in that of C75G U134G, -4. For C75U G136C, the “polymerase ribozyme fitness (log ratio)” value was -2.6.

As for C76A A98U, the “polymerase ribozyme fitness (log ratio)” value is -0.0442. For C76G C87A U111A, the “polymerase ribozyme fitness (log ratio)” value is no more than -4.2. Turning to A73G G84U, the “polymerase ribozyme fitness (log ratio)” value was -1.29. In the case of G74A A150U it was -2.61; in that of A73U C118U, -0.982; in that of C72U G143C, -3.23. With G74C U90C A91C U104G U130A the figure was no more than -4.2; with C75G C85U U101C, no more than -4.2.

Regarding C72U G83A C93U U111C A120U G143U, the “polymerase ribozyme fitness (log ratio)” value is no more than -4.2. Turning to A73C A113C, the “polymerase ribozyme fitness (log ratio)” value is no more than -4.2. Turning to C76A C87U G92C A142G, the “polymerase ribozyme fitness (log ratio)” value was no more than -4.2. With C72U U134A the figure was -2.32; with C75U G94C G100U A107G, no more than -4.2; with C76G G80C C105U, no more than -4.2.

Regarding A73G G83A, the “polymerase ribozyme fitness (log ratio)” value was -1.72. Regarding C72G U77G G84A C114G, the “polymerase ribozyme fitness (log ratio)” value was no more than -4.2. In the case of C76A C105U it was -2.47.

As for C76A U135C, the “polymerase ribozyme fitness (log ratio)” value was -1.96. With C72A A91U U145A the figure was no more than -4.2; with C75U G92U G112C A113U C114G, no more than -4.2; with C72G C85G, no more than -4.2.

Turning to G74A U82G G94U G136A, the “polymerase ribozyme fitness (log ratio)” value was no more than -4.2. C72U A91U C96G: the “polymerase ribozyme fitness (log ratio)” value is no more than -4.2. With C72U C85G the figure was -1.95. With C75G C129U the figure was no more than -4.2. On to C75U C96A G128U, for which the “polymerase ribozyme fitness (log ratio)” value was -3.56. With A73G C85U C96G C108G U127G G136C, the “polymerase ribozyme fitness (log ratio)” value was no more than -4.2. In the case of C76A C79U C96A U139A it was no more than -4.2; in that of A73G G128C, -3.67. As to C76G U78C C93U C103G A137G, the “polymerase ribozyme fitness (log ratio)” value was no more than -4.2. For A73G C85A, the “polymerase ribozyme fitness (log ratio)” value was -1.22. In the case of A73G A142C it was -1.76; in that of C75U G84U, -2.45; in that of C76G G83U C103U, no more than -4.2. With A73C G81C A110G A121G the figure was no more than -4.2. In the case of G74C A89U U146C it was no more than -4.2; in that of C75G C85U A106C A115G G141U, no more than -4.2.

For G74U C85G, the “polymerase ribozyme fitness (log ratio)” value is no more than -4.2.

Turning to C76G G81A, the “polymerase ribozyme fitness (log ratio)” value was no more than -4.2.

As to C72A G81U G83C C93U, the “polymerase ribozyme fitness (log ratio)” value was no more than -4.2. For the variant A73U G92U G141A U145A, the “polymerase ribozyme fitness (log ratio)” value is -3.24. With A73G C96G C105A U139A the figure was no more than -4.2.

C75U C93U: the “polymerase ribozyme fitness (log ratio)” value was -0.656. For the variant C75U C93G, the “polymerase ribozyme fitness (log ratio)” value was -3. As to C75U C85U G86C, the “polymerase ribozyme fitness (log ratio)” value was -1.49.

With C72G A89G G92A C114G, the “polymerase ribozyme fitness (log ratio)” value was no more than -4.2.

As for A73G C93A A110C U139A, the “polymerase ribozyme fitness (log ratio)” value was no more than -4.2. With A73G G83U G84U, the “polymerase ribozyme fitness (log ratio)” value was -1.48. As to A73G C79U C96U A142U, the “polymerase ribozyme fitness (log ratio)” value was no more than -4.2.

G74U G88A A119U C125U: the “polymerase ribozyme fitness (log ratio)” value was -3.95.

For the variant C75U G83U C129G U144G, the “polymerase ribozyme fitness (log ratio)” value is no more than -4.2. On to C75U U145C U146G, for which the “polymerase ribozyme fitness (log ratio)” value is -0.419.

With G74A G100U U104C U109G U146A, the “polymerase ribozyme fitness (log ratio)” value is no more than -4.2.

In the case of G71U G83U, the “polymerase ribozyme fitness (log ratio)” value was -3.48.

As to G71U G83C, the “polymerase ribozyme fitness (log ratio)” value was -2.74. In the case of A73G G88A A107G it was no more than -4.2; in that of C75U A91G U104A U139A, no more than -4.2.
